{
  "source": "paper PMC13232553",
  "molecular_target": "mPiezo1-ALFA_(2420)-HRV3C-GFP (mouse (printed only as mPiezo1)) (UniProt E2JF22)",
  "assay": "SEC; Superose-6 (10/300 GL) in 150 mM NaCl, 20 mM tris pH 8, 0.025% C12E10, 4°C",
  "conditions": "remark: other sources report otherwise",
  "data": [
    {"substance": "mPiezo1-ALFA_(2420)-HRV3C-GFP, E2JF22 1-2547", "values": [
      {"measurement": "stoichiometry N", "result": 3}
    ]}
  ]
}
